Where a chain is given by its changes, count along the chain named.
Key:
human FcRn [1] = target: T1, human FcRn (human, UniProt P55899 24-297; P61769 21-119); experiment: Biacore (SPR): hFcRn amine-coupled on a CM5 chip, antibody as mobile phase, pH 6.0, 1:1 Langmuir fit
T1 construct: beta-2-microglobulin is not mentioned; also called hFcRn; recombinantly expressed hFcRn
Method: (§1) The affinity was then calculated by fitting the data using a 1:1 Langmuir binding model.

[2] = target: Pre-S1 domain of the L protein on recombinant HBV D genotype virus (hepatitis B virus, D genotype); experiment: cell-based or functional assay
[3] = target: FcγRIIIa F158 on Jurkat/NFAT-luc2p/FcγRIIIa F158 cells (UniProt P08637 17-254, limits assumed); experiment: cell-based or functional assay
[4] = target: T2, FcγRIIa R131 on Jurkat/NFAT-luc2p/FcγRIIa R131 cells (UniProt P12318 34-317); experiment: cell-based or functional assay
T2 sequence (looked up): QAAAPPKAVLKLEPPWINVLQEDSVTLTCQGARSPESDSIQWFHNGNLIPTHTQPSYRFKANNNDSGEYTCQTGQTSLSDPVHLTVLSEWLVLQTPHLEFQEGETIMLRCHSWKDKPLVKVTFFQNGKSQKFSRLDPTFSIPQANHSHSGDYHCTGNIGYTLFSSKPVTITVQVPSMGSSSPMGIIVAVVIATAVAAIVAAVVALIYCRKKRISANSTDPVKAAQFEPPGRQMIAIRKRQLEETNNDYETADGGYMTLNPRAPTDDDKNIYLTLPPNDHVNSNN

hFcγRIIb [5] = target: T3, hFcγRIIb (human, UniProt P31994 43-217); experiment: Biacore; ratio against A14 WT
T3 construct: also called hFcγR2b
T3 sequence: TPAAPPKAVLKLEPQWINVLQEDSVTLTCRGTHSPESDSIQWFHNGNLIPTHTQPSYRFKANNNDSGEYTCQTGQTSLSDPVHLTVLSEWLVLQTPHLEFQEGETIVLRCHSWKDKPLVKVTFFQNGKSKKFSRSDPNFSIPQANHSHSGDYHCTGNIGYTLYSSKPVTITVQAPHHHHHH
Method: (§2) Different concentrations of recombinant hFcγR were used as the mobile phase over the flow path to allow binding and dissociation with the antibodies on the chip at pH 7.0. The affinity was then calculated by fitting the data using a 1:1 Langmuir binding model.

hFcγRIa [6] = target: T4, hFcγRIa (human, UniProt P12314 16-288, limits assumed); experiment: Biacore; ratio against A14 WT
T4 construct: Recombinant, Ni column purified; also called hFcγR1a; human FcγRI
T4 sequence (P12314 other isoform, or with tags, fused parts or gaps limits assumed): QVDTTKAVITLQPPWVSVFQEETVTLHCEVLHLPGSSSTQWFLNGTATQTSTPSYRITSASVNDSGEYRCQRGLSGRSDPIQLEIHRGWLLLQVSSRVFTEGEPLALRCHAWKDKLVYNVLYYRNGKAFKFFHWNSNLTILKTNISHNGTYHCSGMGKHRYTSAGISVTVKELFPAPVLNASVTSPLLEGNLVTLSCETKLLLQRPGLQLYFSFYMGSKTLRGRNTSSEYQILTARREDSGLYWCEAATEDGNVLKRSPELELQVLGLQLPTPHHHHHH
Method: as §2

hFcγRIIIa (F158) [7] = target: T5, hFcγRIIIa (F158) (human, UniProt P08637 17-208); experiment: Biacore; ratio against A14 WT
T5 construct: F at position 158; also called hFcγR3a F158
T5 sequence (P08637 other isoform, or with tags, fused parts or gaps): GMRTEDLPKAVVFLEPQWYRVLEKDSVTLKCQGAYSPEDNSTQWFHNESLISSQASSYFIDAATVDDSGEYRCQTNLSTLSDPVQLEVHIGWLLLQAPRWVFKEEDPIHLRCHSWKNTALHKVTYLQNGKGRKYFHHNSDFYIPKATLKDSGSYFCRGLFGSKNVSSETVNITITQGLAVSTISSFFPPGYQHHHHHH
Method: as §2

hFcγRIIa (H131) [8] = target: T6, hFcγRIIa (H131) (human, UniProt P12318 34-217); experiment: Biacore; ratio against A14 WT
T6 construct: also called hFcγR2a H131
T6 sequence: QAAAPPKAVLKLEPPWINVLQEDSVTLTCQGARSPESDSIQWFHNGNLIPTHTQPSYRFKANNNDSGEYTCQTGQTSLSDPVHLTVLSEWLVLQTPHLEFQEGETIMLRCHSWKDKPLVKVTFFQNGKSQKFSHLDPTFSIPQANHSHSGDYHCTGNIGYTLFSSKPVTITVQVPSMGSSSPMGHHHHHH
Method: as §2

hFcγRIIa (R131) [9] = target: T7, hFcγRIIa (R131) (human, UniProt P12318 34-217); experiment: Biacore; ratio against A14 WT
T7 construct: also called hFcγR2a R131
T7 sequence: T6 sequence with H134R
Method: as §2

hFcγRIIIa (V158) [10] = target: T8, hFcγRIIIa (V158) (human, UniProt P08637 17-208); experiment: Biacore; ratio against A14 WT
T8 construct: V at position 158; also called hFcγR3a V158
T8 sequence (P08637 other isoform, or with tags, fused parts or gaps): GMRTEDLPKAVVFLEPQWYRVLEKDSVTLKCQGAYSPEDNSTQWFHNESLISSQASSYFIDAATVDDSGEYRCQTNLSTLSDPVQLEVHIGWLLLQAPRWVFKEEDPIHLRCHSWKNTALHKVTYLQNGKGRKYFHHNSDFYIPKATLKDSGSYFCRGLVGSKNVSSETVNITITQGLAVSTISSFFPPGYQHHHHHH
Method: as §2

human FcRn [11] = target: T1, human FcRn; experiment: Biacore; hFcRn amine-coupled on CM5 chip, antibody in mobile phase, pH 6.0, 1:1 Langmuir fit
Method: as §1

hFcγRIIb [12] = target: T3, hFcγRIIb; experiment: Biacore; antibody captured on Protein G CM5 chip, hFcγR in mobile phase, pH 7.0, 1:1 Langmuir fit
Method: as §2

hFcγRIa [13] = target: T4, hFcγRIa; experiment: as above
Method: as §2

hFcγRIIIa (F158) [14] = target: T5, hFcγRIIIa (F158); experiment: as above
Method: as §2

hFcγRIIa (H131) [15] = target: T6, hFcγRIIa (H131); experiment: as above
Method: as §2

hFcγRIIa (R131) [16] = target: T7, hFcγRIIa (R131); experiment: as above
Method: as §2

hFcγRIIIa (V158) [17] = target: T8, hFcγRIIIa (V158); experiment: as above
Method: as §2

[18] = target: T9, antigen peptide NC36b (pre-S1); experiment: ELISA on the antigen peptide NC36b (Pre-S1), panel title 'Binding to PreS1'
T9 construct: Synthesised by Beijing Zhongke Yaguang Biotechnology; also called target antigen Pre-S1

T1 sequence (P55899 24-297 limits assumed, chain 1 of 2): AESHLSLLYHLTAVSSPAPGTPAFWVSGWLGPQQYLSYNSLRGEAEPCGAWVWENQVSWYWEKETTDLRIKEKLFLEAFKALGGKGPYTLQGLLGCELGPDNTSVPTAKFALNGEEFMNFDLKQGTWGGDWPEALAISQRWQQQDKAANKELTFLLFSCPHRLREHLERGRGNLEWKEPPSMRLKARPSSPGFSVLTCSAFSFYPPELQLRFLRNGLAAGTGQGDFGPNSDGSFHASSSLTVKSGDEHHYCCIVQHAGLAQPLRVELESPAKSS
T1 sequence (P61769 21-119 limits assumed, chain 2 of 2): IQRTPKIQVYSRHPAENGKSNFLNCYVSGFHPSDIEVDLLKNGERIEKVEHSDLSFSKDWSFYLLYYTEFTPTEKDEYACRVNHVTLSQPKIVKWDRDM

B1: afuco-A14 GA LS (antibody, human IgG1, lambda)
heavy: QVQLQQSGPGLVKPSQTLSLTCAISGDSVSSNSAAWNWIRQSPSRGLEWLGRTYYRSKWYNDYAVSVKSRITINPDTSKNQFSLQLNSVTPEDTAVYYCARGTRWGMDVWGQGTLVTVSSASTKGPSVFPLAPSSKSTSGGTAALGCLVKDYFPEPVTVSWNSGALTSGVHTFPAVLQSSGLYSLSSVVTVPSSSLGTQTYICNVNHKPSNTKVDKKVEPKSCDKTHTCPPCPAPELLAGPSVFLFPPKPKDTLMISRTPEVTCVVVDVSHEDPEVKFNWYVDGVEVHNAKTKPREEQYNSTYRVVSVLTVLHQDWLNGKEYKCKVSNKALPAPIEKTISKAKGQPREPQVYTLPPSRDELTKNQVSLTCLVKGFYPSDIAVEWESNGQPENNYKTTPPVLDSDGSFFLYSKLTVDKSRWQQGNVFSCSVLHEALHSHYTQKSLSLSPGK
light: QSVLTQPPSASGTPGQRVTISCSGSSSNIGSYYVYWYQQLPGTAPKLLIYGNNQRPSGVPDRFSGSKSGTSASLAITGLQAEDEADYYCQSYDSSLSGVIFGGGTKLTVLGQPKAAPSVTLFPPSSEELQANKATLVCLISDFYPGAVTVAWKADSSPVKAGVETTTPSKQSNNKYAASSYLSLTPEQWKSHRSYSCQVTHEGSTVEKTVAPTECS
modifications: Afucosylated modification (expressed in Fut8-knockout FCC# cells)
notes: IgG1
With B1 the Kd (human FcRn [1]) was 6.46 nM, the “IC50 of inhibition of HBV infection of HepG2-hNTCP cells (HBeAg secretion)” value [2] was about 0.011 µg/mL and the “ADCC activity, fold enhancement compared to A14 (Jurkat/NFAT-luc2p/FcγRIIIa F158 reporter)” value [3] was 18.6 fold. For the same binder, the “ADCP activity, fold enhancement compared to A14 (Jurkat/NFAT-luc2p/FcγRIIa R131 reporter)” value [4] was at least 4.7 fold, the “Fold (KD of A14 WT over KD of afuco-A14 GA LS)” value (hFcγRIIb [5]) was 0.76 fold and the “Fold (KD of A14 WT over KD of afuco-A14 GA LS)” value (hFcγRIa [6]) was 0.41 fold. The “Fold (KD of A14 WT over KD of afuco-A14 GA LS)” value (hFcγRIIIa (F158) [7]) was 11 fold, the “Fold (KD of A14 WT over KD of afuco-A14 GA LS)” value (hFcγRIIa (H131) [8]) was 4.63 fold and the “Fold (KD of A14 WT over KD of afuco-A14 GA LS)” value (hFcγRIIa (R131) [9]) was 3.83 fold. The “Fold (KD of A14 WT over KD of afuco-A14 GA LS)” value (hFcγRIIIa (V158) [10]) was 7.89 fold, the “fold change in KD against A14 WT” value (human FcRn [11]) was 3.4 fold and the Kd (hFcγRIIb [12]) was 7470 nM. For the same binder, the Kd (hFcγRIa [13]) was 173 nM, the Kd (hFcγRIIIa (F158) [14]) was 588 nM and the Kd (hFcγRIIa (H131) [15]) was 169 nM. The Kd (hFcγRIIa (R131) [16]) was 204 nM, the Kd (hFcγRIIIa (V158) [17]) was 123 nM and the “EC50 (read off the curve)” value [18] was about 0.02 µg/mL.
